# Laboratory results taken from patent publication US20120208867, “HMGB1 BINDING NUCLEIC ACID MOLECULE AND APPLICATIONS THEREOF” (published 2012).
# B1: 2'F-C-R4_9068 (ssRNA)
# RNA: GGGACGCUCACGUACGCUCAUGAUAUUUAAAUUUGGCCGCGUUUAAAACAUCCCCUACGAUCAGUGCCUGGACGUGCAGU
# modifications: 2'-F on all C
# B2: 2'F-U-R4_9068 (ssRNA)
# RNA: B1 RNA
# modifications: 2'-F on all U
# B3: R8c6_1-15 (ssRNA)
# RNA: GGGCAGAGUACAGUAAGACACGUAGCACCAGUCUGACGUUUGUCGUCAGUGCCUGGACGUGCAGU
# B4: R8c6_1-18 (ssRNA)
# RNA: GGGAGUACAGUAAGACACGUAGCACCAGUCUGACGUUUGUCGUCAGUGCCUGGACGUGCAGU
# B5: R8c6_1-20 (ssRNA)
# RNA: GGGUACAGUAAGACACGUAGCACCAGUCUGACGUUUGUCGUCAGUGCCUGGACGUGCAGU
# B6: R8c6_1-21 (ssRNA)
# RNA: GGGACAGUAAGACACGUAGCACCAGUCUGACGUUUGUCGUCAGUGCCUGGACGUGCAGU
# B7: #47 (ssRNA)
# RNA: GGGACGCUCACGUACGCUCAAAAAACUACUGCCGAACCGUAAGACACGUAGAACCAGGCAUCAGUGCCUGGACGUGCAGU
# B8: #80 (ssRNA)
# RNA: GGGACGCUCACGUACGCUCACAUCUGAAUUUAAGCCACGUAGAACCAGGCCCUCCACGCGUCAGUGCCUGGACGUGCAGU
# B9: #06 (ssRNA)
# RNA: GGGACGCUCACGUACGCUCAUACACUGCACGCUCCGCUUUGAACAUCAAUGGAGGCCCUGUCAGUGCCUGGACGUGCAGU
# B10: #36 (ssRNA)
# RNA: GGGACGCUCACGUACGCUCACCUAGCACGUCCGUUUCUGGAUCUGUCAGUUAGAGGCCUAUCAGUGCCUGGACGUGCAGU
# B11: #34 (ssRNA)
# RNA: GGGACGCUCACGUACGCUCAAUUCACCUCAGCAUGUCCGCUUGUGACGAUGGAGGCACCUUCAGUGCCUGGACGUGCAGU
# B12: #08 (ssRNA)
# RNA: GGGACGCUCACGUACGCUCAAGUCCCUUGACACGUCCGUUUUCUAACUGGAAUAGAGGCCUCAGUGCCUGGACGUGCAGU
# B13: #10 (ssRNA)
# RNA: GGGACGCUCACGUACGCUCAUAGUCAAGGUGAAAACCCCCAUAGAGACUUCAGUGCCUGGACGUGCAGU
# B14: 2'F-R8c6_1-1 (ssRNA)
# RNA: GGGACGCUCACGUACGCUCAGAGUACAGUAAGACACGUAGCACCAGUCUGACGUUUGUCGUCAGUGCCUGGACGUGCAG
# modifications: 2'-F on all C and U
# B15: 2'F-R8c6_1-4 (ssRNA)
# RNA: GGGACGCUCACGUACGCUCAGAGUACAGUAAGACACGUAGCACCAGUCUGACGUUUGUCGUCAGUGCCUGGACGUG
# modifications: 2'-F on all C and U
# B16: 2'F-R8c6_1-15 (ssRNA)
# RNA: B3 RNA
# modifications: 2'-F on all C and U
# B17: 2'F-R8c6_1-21 (ssRNA)
# RNA: B6 RNA
# modifications: 2'-F on all C and U
# B18: R8c6_1-18-S4 (ssRNA)
# RNA: GGGAGUACAGUAAGACACGUAGCACCAGUCGUUUGUCGUGCCUGGACGUGCAGU
# Target: T1, His-tagged HMGB1 (UniProt P09429 P09429:1-215)
# T1 sequence (P09429 whole entry, one chain of several): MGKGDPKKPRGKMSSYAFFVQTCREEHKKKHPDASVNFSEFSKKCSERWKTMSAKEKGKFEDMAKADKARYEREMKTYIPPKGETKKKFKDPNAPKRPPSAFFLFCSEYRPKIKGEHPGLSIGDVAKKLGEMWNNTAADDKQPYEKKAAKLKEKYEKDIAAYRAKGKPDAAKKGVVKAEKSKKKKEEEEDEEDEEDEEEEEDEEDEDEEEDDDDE
# Experiment: SPR; 200 nM protein, 150 mM NaCl; above unmodified 40N
# Conditions: tags: N-terminal His-tag
# Method: (§1) First, a sensor chip (trade name: Sensor Chip SA, manufactured by GE Heathcare) specially made for a BIACORE was set on the aforementioned BLACORE (registered trademark) X. Biotinylate deoxythymidine (5 μmol/L) was injected into the flow cell 2 of the aforementioned sensor chip using a running buffer and subjected to binding until the signal intensity (RU: resonance unit) reached about 1000 RU. For the aforementioned biotinylated deoxythymidine, 20-base-long deoxythymidine in which the 5′ end was biotinylated was used. Then, 10 μg/mL of an RNA aptamer was injected at a flow rate of 20 μL/min for 1 min into the aforementioned flow cells 1 and 2 of the aforementioned chip using a running buffer and subjected to binding until the signal intensity reached about 1000 RU. Next, 675 nmol/L of the aforementioned His-tag-added HMGB1 was injected at a flow rate of 20 μL/min for 30 sec using the aforementioned running buffer, and under the same conditions the aforementioned running buffer was allowed to flow continuously for washing. Simultaneously with the injection of the aforementioned His-tag-added HMGB1 and washing with the aforementioned running buffer, signal intensity was measured. The aforementioned running buffer was composed of 20 mmol/L of HEPES, 500 mmol/L of NaCl, 0.1 mmol/L of MgCl₂, and 0.1% Triton X-100 (registered trademark), with the pH thereof being 7.2. As a blocking agent for suppressing nonspecific binding, tRNA was used in a concentration of 1 mg/mL. In a comparative example, signal intensity was measured in the same manner except that the aforementioned comparative example RNA was used in place of the aforementioned example RNA aptamers.
# An analysis of ability to bind to the aforementioned His-tag-added HMGB1 (manufactured by Sigma) was carried out in the same manner as in (2) above of the aforementioned Example 1 except that the aforementioned fluorinated RNA aptamers were used, the concentration of the aforementioned His-tag-added HMGB1 was 200 nmol/L, the concentration of NaCl in the aforementioned running buffer was 150 mmol/L, and the injection time of the aforementioned His-tag-added HMGB1 was 60 seconds. Also, an analysis was carried out in the same manner on unmodified R8c6_{—}1 that was not fluorinated.
row,Binder,binding result
1,B1,binds
2,B2,binds

# Target: T1, His-tagged HMGB1
# Experiment: SPR; superior to R8c6_1; 635 nM protein
# Conditions: tags: N-terminal His-tag
# Method: as §1
# An analysis of ability to bind to His-tag-added HMGB1 was carried out in the same manner as in (2) above of the aforementioned Example 1 except that the aforementioned RNA aptamers were used, the concentration of the aforementioned His-tag-added HMGB1 was 635 nmol/L, and the injection time of the aforementioned His-tag-added HMGB1 was 60 seconds. Also, an analysis was carried on the aforementioned 40N as a comparative example in the same manner.
row,Binder,binding result
1,B3,binds
2,B4,binds
3,B5,binds
4,B6,binds

# Target: His-tagged MIF (UniProt P14174 P14174:2-115)
# Sequence (P14174 2-115, one chain of several): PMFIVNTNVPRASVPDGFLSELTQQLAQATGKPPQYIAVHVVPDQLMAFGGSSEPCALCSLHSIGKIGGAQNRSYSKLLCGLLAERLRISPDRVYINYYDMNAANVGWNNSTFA
# Experiment: SPR; 300 nM His-MIF specificity control
# Conditions: not given
# Method: as §1
# The ability of each of the aforementioned RNA aptamers to bind to His-tag was examined. An analysis of the aforementioned binding ability was carried out in the same manner as in (2) above except that 300 nmol/L of the aforementioned His-tag-added MIF protein was used in place of the aforementioned His-tag-added HMGB1.
row,Binder,binding result
1,B7,no binding
2,B8,no binding
3,B9,no binding
4,B10,no binding
5,B11,no binding
6,B12,no binding
7,B13,no binding

# Target: T1, His-tagged HMGB1
# Experiment: SPR; physiological 150 mM NaCl
# Conditions: tags: N-terminal His-tag
# Method: as §1
# The ability of each of the aforementioned RNA aptamers to bind to HMGB1 under physiological conditions was examined. An analysis of binding ability was carried out in the same manner as in (2) above except that the 500 mmol/L NaCl concentration of the aforementioned running buffer was changed so as to conform to the physiology condition of a living body of 150 mmol/L, and the injection time of the aforementioned His-tag-added HMGB1 was 45 sec.
row,Binder,binding result
1,B7,binds
2,B8,binds
3,B9,binds
4,B10,binds
5,B11,binds
6,B12,binds
7,B13,binds

# Target: HMGB1 (no His-tag) (UniProt P09429 P09429:1-215)
# Sequence (P09429 whole entry, one chain of several): as the sequence (P09429 whole entry, one chain of several) above
# Experiment: SPR; 1 uM untagged HMGB1, 500 mM NaCl
# Conditions: tags: none
# Method: as §1
# The ability of each of the aforementioned RNA aptamers to bind to HMGB1 in which no His-tag was added to the N-terminus was examined. An analysis of the aforementioned binding ability was carried out in the same manner as in (2) above except that 1 μmol/L of the aforementioned HMGB1 was used in place of the aforementioned His-tag-added HGB1 and the injection time of the aforementioned HMGB1 was 60 sec.
row,Binder,binding result
1,B7,binds
2,B8,binds
3,B9,binds
4,B10,binds
5,B11,binds
6,B12,binds
7,B13,binds

# Target: T1, His-tagged HMGB1
# Experiment: SPR; 200 nM protein, 500 mM NaCl
# Conditions: tags: N-terminal His-tag
# Method: as §1
# An analysis of ability to bind to His-tag-added HMGB1 was carried out in the same manner as in (2) above of the aforementioned Example 1 except that the aforementioned fluorinated RNA aptamers were used, the concentration of His-tag-added HMGB1 was 200 nmol/L, and the injection time of the aforementioned His-tag-added HMGB1 was 60 seconds. Also, an analysis was carried out in the same manner on the aforementioned 2′F-40N and unmodified R8c6_{—}1 that was not fluorinated.
row,Binder,binding result
1,B14,binds
2,B15,binds
3,B16,binds
4,B17,binds

# Target: T1, His-tagged HMGB1
# Experiment: SPR; 160 nM protein
# Conditions: tags: N-terminal His-tag
# Method: as §1
# An analysis of ability to bind to His-tag added HMGB1 was carried out in the same manner as in (2) above of the aforementioned Example 1 except that the aforementioned RNA aptamers were used, and the concentration of the aforementioned His-tag-added HMGB1 was 160 nmol/L. Also, an analysis was carried on the aforementioned 40N as a comparative example in the same manner. FIGS. 12 and 13 show the results.
row,Binder,binding result
1,GGGCACGUAGCACCAGUCUGACGUUUGUCGUCAGUGCCUGGACGUGCAGU (ssRNA) [R8c6_1-30],binds
2,GGGUAGCACCAGUCUGACGUUUGUCGUCAGUGCCUGGACGUGCACC (ssRNA) [R8c6_1-34CC],binds
3,B18,binds
4,GGGAGUACAGUAAGACACGUAGCACCAGUGUGCCUGGACGUGCAGU (ssRNA) [R8c6_1-18-S6],binds
